Test results reported in US20240109955A1.

Legend:
Assay in all cases: cell-based or functional assay
[1] = biological target: SARS-CoV-2 Omicron variant XBB spike protein (SARS-CoV-2)
[2] = biological target: SARS-CoV-2 Omicron variant BQ.1 spike protein (SARS-CoV-2)
[3] = biological target: SARS-CoV-2 Omicron variant BQ.1.1 spike protein (SARS-CoV-2)
[4] = biological target: SARS-CoV-2 Omicron variant B.1.1.529 spike protein (SARS-CoV-2)
[5] = biological target: SARS-CoV-2 Delta variant spike protein (SARS-CoV-2)
[6] = biological target: SARS-CoV-2 Omicron variant BA.2.75.2 spike protein (SARS-CoV-2)
[7] = biological target: SARS-CoV-2 Omicron variant BA.4/5 spike protein (SARS-CoV-2)

B1: MX1027 (bispecific antibody)
chain 1: EIVMTQSPAILSVSPGERATLSCRASQSVAINLAWYQQKPGQAPRLLIYAASSRATGIPGRFSGSGSETNFTLTISSLQSGDFAVYYCQQYITWPPSYTFGQGTKLEIKGGSSGQTVVTQEPSFSVSPGGTVTLTCGLSSGSVSTAYFPSWYQQTPGQAPRTLIYGTNTRSSGVPDRFSGSILGNKAALTITGAQADDESDYYCVLYMGRGIVVFGGGTKLTVLGGGGSGGSGSGGGGSASGSGQVQLVESGGGVVQPGRSLRLSCAASGFTLSSYGMHWVRQAPGKGLEWVAVISYDGSNKYYVDSVKGRFTISRDNSKNTLYLQMNSLRAEDTAVYYCRWAYWELLPDYYYGMDVWGQGTTVTVSSGGSSGEVQLVESGGALIQPGGSLRLSCAASGIIVSANYMSWVRQAPGKGLEWVSVIYSGGSTFYADSVKGRFTISRDNSKNTLYLEMNSLRAEDTAVYYCARDAPILGVSDWGQGTLVTVSSASGGSGDKTHTCPPCPAPELLGGPSVFLFPPKPKDTLMISRTPEVTCVVVDVSHEDPEVKFNWYVDGVEVHNAKTKPREEQYNSYVVSVLTVLHQDWLNGKEYKCKVSNKALPAPIEKTISKAKGQPREPQVYTLPPCRDELTKNQVSLWCLVKGFYPSDIAVEWESNGQPENNYKTTPPVLDSDGSFFKKLTVDKSRWQQGNVFSCSVLHEALHSHYTQKSLSLSPG
chain 2: QTVVTQEPSFSVSPGGTVTLTCGLSSGSVSTAYFPSWYQQTPGQAPRTLIYGTNTRSSGVPDRFSGSILGNKAALTITGAQADDESDYYCVLYMGRGIVVFGGGTKLTVLGGSSGEIVMTQSPAILSVSPGERATLSCRASQSVAINLAWYQQKPGQAPRLLIYAASSRATGIPGRFSGSGSETNFTLTISSLQSGDFAVYYCQQYITWPPSYTFGQGTKLEIKGGGGSGGSGSGGGGSASGSGEVQLVESGGALIQPGGSLRLSCAASGIIVSANYMSWVRQAPGKGLEWVSVIYSGGSTFYADSVKGRFTISRDNSKNTLYLEMNSLRAEDTAVYYCARDAPILGVSDWGQGTLVTVSSGGSSGQVQLVESGGGVVQPGRSLRLSCAASGFTLSSYGMHWVRQAPGKGLEWVAVISYDGSNKYYVDSVKGRFTISRDNSKNTLYLQMNSLRAEDTAVYYCRWAYWELLPDYYYGMDVWGQGTTVTVSSASGGSGDKTHTCPPCPAPELLGGPSVFLFPPKPKDTLMISRTPEVTCVVVDVSHEDPEVKFNWYVDGVEVHNAKTKPREEQYNSYVVSVLTVLHQDWLNGKEYKCKVSNKALPAPIEKTISKAKGQPREPQVCTLPPSRDELTKNQVSLSCAVKGFYPSDIAVEWESNGQPENNYKTTPPVLDSDGSFFLVSKLTVDKSRWQQGNVFSCSVLHEALHSHYTQKSLSLSPG
[1]
  IC50, pseudovirus neutralization: 0.0129 µg/mL
  IC80, pseudovirus neutralization: 0.0207 µg/mL
[2]
  IC50, pseudovirus neutralization: 0.0216 µg/mL
  IC80, pseudovirus neutralization: 0.0649 µg/mL
[3]
  IC50, pseudovirus neutralization: 0.0135 µg/mL
  IC80, pseudovirus neutralization: 0.0232 µg/mL

B2: MX1041 (bispecific antibody)
chain: QTVVTQEPSFSVSPGGTVTLTCGLSSGSVSTAYFPSWYQQTPGQAPRTLIYGTNTRSSGVPDRFSGSILGNKAALTITGAQADDESDYYCVLYMGRGIVVFGGGTKLTVLGGSSGEIVLTQSPGTLSLSPGETATLSCRASQSFSSDLAWYQQKPGQAPRLLIYGASSRATGIPDRFSGSGSGTDFTLTISRLEPADFAVYYCQQYGSSPPVTFGGGTKVEIKGGGGSGGSGSGGGGSASGSGEVQLVESGGGLIQPGGSLRLSCAASGVIVSYNYMNWVRQAPGKGLEWVSVIYSGGSTFYADSVRGRFTISRDNSKNTLYLQMNSLRAEDTAVYYCARDLGPAGAFDIWGLGTMVTVSSGGSSGQVQLVESGGGVVQPGRSLRLSCAASGFTLSSYGMHWVRQAPGKGLEWVAVISYDGSNKYYVDSVKGRFTISRDNSKNTLYLQMNSLRAEDTAVYYCRWAYWELLPDYYYGMDVWGQGTTVTVSSASGGSGDKTHTCPPCPAPELLGGPSVFLFPPKPKDTLMISRTPEVTCVVVDVSHEDPEVKFNWYVDGVEVHNAKTKPREEQYNSYVVSVLTVLHQDWLNGKEYKCKVSNKALPAPIEKTISKAKGQPREPQVYTLPPSRDELTKNQVSLTCLVKGFYPSDIAVEWESNGQPENNYKTTPPVLDSDGSFFKKLTVDKSRWQQGNVFSCSVLHEALHSHYTQKSLSLSPG
[4]
  IC50, pseudovirus neutralization: 0.00414 µg/mL
  IC80, pseudovirus neutralization: 0.00881 µg/mL
[5]
  IC50, pseudovirus neutralization: 0.0291 µg/mL
  IC80, pseudovirus neutralization: 0.0485 µg/mL

B3: MX1028 (bispecific antibody)
chain 1: EIVMTQSPAILSVSPGERATLSCRASQSVAINLAWYQQKPGQAPRLLIYAASSRATGIPGRFSGSGSETNFTLTISSLQSGDFAVYYCQQYITWPPSYTFGQGTKLEIKGGSSGDTVMTQSPLSLPVTPGEPASISCRSSQSLLNSNGYNYLDWYVQKPGQSPQLLIYLGSNRASGVPDRFSGSGSGTDFTLKISRVEAEDVGVYYCMQPLQTPLFTFGPGTKVEIKGGGGSGGSGSGGGGSASGSGQVTLRESGPALVKPTQTLTLTCTFSGFSLSTRGVCVSWIRQPPGKALEWLAFIDWDDDKYYNTSLKTRLTISKDTSKNQVVLTMTNVHPVDTATYYCARISSHHGSSWCTTFDYWGQGALVTVSAGGSSGEVQLVESGGALIQPGGSLRLSCAASGIIVSANYMSWVRQAPGKGLEWVSVIYSGGSTFYADSVKGRFTISRDNSKNTLYLEMNSLRAEDTAVYYCARDAPILGVSDWGQGTLVTVSSASGGSGDKTHTCPPCPAPELLGGPSVFLFPPKPKDTLMISRTPEVTCVVVDVSHEDPEVKFNWYVDGVEVHNAKTKPREEQYNSYVVSVLTVLHQDWLNGKEYKCKVSNKALPAPIEKTISKAKGQPREPQVYTLPPCRDELTKNQVSLWCLVKGFYPSDIAVEWESNGQPENNYKTTPPVLDSDGSFFKKLTVDKSRWQQGNVFSCSVLHEALHSHYTQKSLSLSPG
chain 2: DTVMTQSPLSLPVTPGEPASISCRSSQSLLNSNGYNYLDWYVQKPGQSPQLLIYLGSNRASGVPDRFSGSGSGTDFTLKISRVEAEDVGVYYCMQPLQTPLFTFGPGTKVEIKGGSSGEIVMTQSPAILSVSPGERATLSCRASQSVAINLAWYQQKPGQAPRLLIYAASSRATGIPGRFSGSGSETNFTLTISSLQSGDFAVYYCQQYITWPPSYTFGQGTKLEIKGGGGSGGSGSGGGGSASGSGEVQLVESGGALIQPGGSLRLSCAASGIIVSANYMSWVRQAPGKGLEWVSVIYSGGSTFYADSVKGRFTISRDNSKNTLYLEMNSLRAEDTAVYYCARDAPILGVSDWGQGTLVTVSSGGSSGQVTLRESGPALVKPTQTLTLTCTFSGFSLSTRGVCVSWIRQPPGKALEWLAFIDWDDDKYYNTSLKTRLTISKDTSKNQVVLTMTNVHPVDTATYYCARISSHHGSSWCTTFDYWGQGALVTVSAASGGSGDKTHTCPPCPAPELLGGPSVFLFPPKPKDTLMISRTPEVTCVVVDVSHEDPEVKFNWYVDGVEVHNAKTKPREEQYNSYVVSVLTVLHQDWLNGKEYKCKVSNKALPAPIEKTISKAKGQPREPQVCTLPPSRDELTKNQVSLSCAVKGFYPSDIAVEWESNGQPENNYKTTPPVLDSDGSFFLVSKLTVDKSRWQQGNVFSCSVLHEALHSHYTQKSLSLSPG
[1]
  IC50, pseudovirus neutralization: 0.00677 µg/mL
  IC80, pseudovirus neutralization: 0.0161 µg/mL
[6]
  IC50, pseudovirus neutralization: 0.00243 µg/mL
  IC80, pseudovirus neutralization: 0.0074 µg/mL
[2]
  IC50, pseudovirus neutralization: 0.0105 µg/mL
  IC80, pseudovirus neutralization: 0.0255 µg/mL
[3]
  IC50, pseudovirus neutralization: 0.0042 µg/mL
  IC80, pseudovirus neutralization: 0.0144 µg/mL
[7]
  IC50, pseudovirus neutralization: 0.00181 µg/mL
  IC80, pseudovirus neutralization: 0.00373 µg/mL

B4: A46 + B8 (protein)
VH 1: QVQLVESGGGVVQPGRSLRLSCAASGFTLSSYGMHWVRQAPGKGLEWVAVISYDGSNKYYVDSVKGRFTISRDNSKNTLYLQMNSLRAEDTAVYYCRWAYWELLPDYYYGMDVWGQGTTVTVSS
VL 1: QTVVTQEPSFSVSPGGTVTLTCGLSSGSVSTAYFPSWYQQTPGQAPRTLIYGTNTRSSGVPDRFSGSILGNKAALTITGAQADDESDYYCVLYMGRGIVVFGGGTKLTVL
VH 2: EVQLVESGGALIQPGGSLRLSCAASGIIVSANYMSWVRQAPGKGLEWVSVIYSGGSTFYADSVKGRFTISRDNSKNTLYLEMNSLRAEDTAVYYCARDAPILGVSDWGQGTLVTVSS
VL 2: EIVMTQSPAILSVSPGERATLSCRASQSVAINLAWYQQKPGQAPRLLIYAASSRATGIPGRFSGSGSETNFTLTISSLQSGDFAVYYCQQYITWPPSYTFGQGTKLEIK
[1]
  IC50, pseudovirus neutralization: 0.0186 µg/mL
  IC80, pseudovirus neutralization: 0.0481 µg/mL
[2]
  IC50, pseudovirus neutralization: 0.0186 µg/mL
  IC80, pseudovirus neutralization: 0.0493 µg/mL
[3]
  IC50, pseudovirus neutralization: 0.0145 µg/mL
  IC80, pseudovirus neutralization: 0.0273 µg/mL

B5: E8 + B8 (protein)
VH 1: QVTLRESGPALVKPTQTLTLTCTFSGFSLSTRGVCVSWIRQPPGKALEWLAFIDWDDDKYYNTSLKTRLTISKDTSKNQVVLTMTNVHPVDTATYYCARISSHHGSSWCTTFDYWGQGALVTVSA
VL 1: DTVMTQSPLSLPVTPGEPASISCRSSQSLLNSNGYNYLDWYVQKPGQSPQLLIYLGSNRASGVPDRFSGSGSGTDFTLKISRVEAEDVGVYYCMQPLQTPLFTFGPGTKVEIK
VH 2: B4 VH 2
VL 2: B4 VL 2
[1]
  IC50, pseudovirus neutralization: 0.00996 µg/mL
  IC80, pseudovirus neutralization: 0.0181 µg/mL
[2]
  IC50, pseudovirus neutralization: 0.011 µg/mL
  IC80, pseudovirus neutralization: 0.0305 µg/mL
[3]
  IC50, pseudovirus neutralization: 0.00955 µg/mL
  IC80, pseudovirus neutralization: 0.0132 µg/mL
